Test results published in patent publication US20260152527A1 (SIGHTSTREAM BIOTHERAPEUTICS, published 2026).
Starred links: 1 amine or outer side, 2 acyl side, 3 side chain; linkers in the order of their positions; H or OH if unused. Positions of bridges follow the written chain, without caps; N, C: chain ends. Non-standard residues stand in square brackets, D forms with d. dPhe(4-CF3) = N[C@H](Cc1ccc(C(F)(F)F)cc1)C(=O)O; dLys(N3) = [N-]=[N+]=NCCCC[C@@H](N)C(=O)O; NMeW = CN[C@@H](Cc1c[nH]c2ccccc12)C(=O)O; Lys(N3) = [N-]=[N+]=NCCCC[C@H](N)C(=O)O; mXylylene = c1cc(C[*:1])cc(C[*:2])c1; NMeH = CN[C@@H](Cc1c[nH]cn1)C(=O)O; NMeR = CN[C@@H](CCCNC(=N)N)C(=O)O; hArg = N=C(N)NCCCC[C@H](N)C(=O)O; R5 = C=CCCC[C@@](C)(N)C(=O)O; S5 = C=CCCC[C@](C)(N)C(=O)O; Nle = CCCC[C@H](N)C(=O)O; Pra = C#CC[C@H](N)C(=O)O

B1: KR-069 (peptide)
peptide: Ac-[Nle][dLys(N3)]H[dF]RW[Pra]K-NH2
modifications: triazole 2-7; not fully specified; printed as Ac-Nle-[DLys(N3)-His-DPhe-Arg-Trp-Pra]-Lys-NH2
B2: KR-054 (peptide)
peptide: Ac-[Nle][Lys(N3)]H[dF][hArg]W[Pra]K-NH2
modifications: triazole 2-7; not fully specified; printed as Ac-Nle-[Lys(N3)-His-DPhe-HArg-Trp-Pra]-Lys-NH2
B3: KR-038 (peptide)
peptide: Ac-[Nle][R5]H[dF]RW[S5]-NH2
modifications: staple 2-7
SMILES: CCCC[C@H](NC(C)=O)C(=O)N[C@]1(C)CCCC=CCCC[C@@](C)(C(N)=O)NC(=O)[C@H](Cc2c[nH]c3ccccc23)NC(=O)[C@H](CCCNC(=N)N)NC(=O)[C@@H](Cc2ccccc2)NC(=O)[C@H](Cc2c[nH]cn2)NC1=O
B4: KR-056 (peptide)
peptide: Ac-[Nle][Lys(N3)]H[dF]RW[Pra]N-NH2
modifications: triazole 2-7; not fully specified; printed as Ac-Nle-[Lys(N3)-His-DPhe-Arg-Trp-Pra]-Asn-NH2

What follows are binders tested against human recombinant MC5R (CHO-K1/Ga15 stable cell line, GenScript) (human, UniProt P33032 1-325) (assay: cell-based or functional assay).
human recombinant MC5R (CHO-K1/Ga15 stable cell line, GenScript), sequence (P33032 whole entry): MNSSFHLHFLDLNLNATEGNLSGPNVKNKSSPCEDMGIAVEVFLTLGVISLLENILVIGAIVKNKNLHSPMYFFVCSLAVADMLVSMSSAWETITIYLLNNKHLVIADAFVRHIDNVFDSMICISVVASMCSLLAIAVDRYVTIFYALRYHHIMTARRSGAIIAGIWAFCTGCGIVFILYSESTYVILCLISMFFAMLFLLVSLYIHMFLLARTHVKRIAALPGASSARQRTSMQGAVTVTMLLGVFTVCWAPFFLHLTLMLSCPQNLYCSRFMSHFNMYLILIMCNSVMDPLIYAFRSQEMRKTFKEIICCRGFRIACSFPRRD
In the case of Ac-[Nle][Lys(N3)][NMeH][dF]RW[Pra]-NH2 (triazole 2-7) [KR-043], the “MC5R IC50” value is reported as 86 nM. Ac-[Nle][Lys(N3)]H[dF][NMeR]W[Pra]-NH2 (triazole 2-7) [KR-045] was tested, and the “MC5R IC50” value was 191 nM. For B1, the “MC5R IC50” value was 161 nM. With Ac-[Nle][Lys(N3)][NMeH][dF]R[NMeW][Pra]-NH2 (triazole 2-7) [KR-051] the “MC5R IC50” value was 98.9 nM. With Ac-EHFRWGKPV-NH2 [KR-004] the “MC5R IC50” value was greater than 10000 nM. XXHFRWX (Ac-Nle-[Dab(N3)-His-DPhe-Arg-Trp-Dab(N3)] linkr: 3,3′-Oxybis[1-propyne]-NH2) [KR-042] was tested, and the “MC5R IC50” value was 237 nM. In the case of XXHFRWX (Ac-Nle-[Dab-His-DPhe-Arg-Trp-Dab] Linker: succinic acid-NH2) [KR-041], the “MC5R IC50” value is reported as 44.3 nM. Ac-[Nle]CH[dF]RCW-NH2 (linker 2-6 via mXylylene) [KR-032] was tested, and the “MC5R IC50” value was 489 nM. B2 was tested, and the “MC5R IC50” value was 82.3 nM. For B3, the “MC5R IC50” value was 5090 nM. For Ac-SYSMEHF[NMeR]WGKPV-NH2 [KR-023], the “MC5R IC50” value was 4540 nM. Ac-[Nle]CH[dF]RWC-NH2 (linker 2-7 via mXylylene) [KR-040] was tested, and the “MC5R IC50” value was 257 nM. With Ac-[Nle][Lys(N3)]H[dF]R[NMeW][Pra]-NH2 (triazole 2-7) [KR-046] the “MC5R IC50” value was 94.8 nM. For B4, the “MC5R IC50” value was 69.6 nM. In the case of Ac-[Nle][S5]H[dF]RW[S5]-NH2 (staple 2-7) [KR-039], the “MC5R IC50” value is reported as 739 nM. With Ac-[Nle][Lys(N3)]H[dPhe(4-CF3)]RW[Pra]-NH2 (triazole 2-7) [KR-048] the “MC5R IC50” value was 48.8 nM.

Each binder was assayed against human recombinant MC1R (CHO-K1 stable cell line, GenScript) (human, UniProt Q01726 1-317) (assay: cell-based or functional assay).
human recombinant MC1R (CHO-K1 stable cell line, GenScript), sequence (Q01726 whole entry): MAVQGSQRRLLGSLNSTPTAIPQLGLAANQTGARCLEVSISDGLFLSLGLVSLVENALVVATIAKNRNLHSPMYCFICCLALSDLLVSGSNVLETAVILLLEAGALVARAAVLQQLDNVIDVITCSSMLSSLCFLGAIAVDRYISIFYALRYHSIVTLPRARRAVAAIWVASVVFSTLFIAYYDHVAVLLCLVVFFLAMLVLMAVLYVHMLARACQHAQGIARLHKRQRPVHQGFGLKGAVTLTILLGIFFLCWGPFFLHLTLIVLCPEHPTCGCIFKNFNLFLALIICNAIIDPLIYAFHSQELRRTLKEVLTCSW
For Ac-[Nle][Lys(N3)][NMeH][dF]RW[Pra]-NH2 (triazole 2-7) [KR-043], the “MC1R IC50” value was 0.15 nM. Ac-[Nle][Lys(N3)]H[dF][NMeR]W[Pra]-NH2 (triazole 2-7) [KR-045] was tested, and the “MC1R IC50” value was 0.48 nM. B1 was tested, and the “MC1R IC50” value was 16.5 nM. With Ac-[Nle][Lys(N3)][NMeH][dF]R[NMeW][Pra]-NH2 (triazole 2-7) [KR-051] the “MC1R IC50” value was 0.043 nM. For Ac-EHFRWGKPV-NH2 [KR-004], the “MC1R IC50” value was 1.15 nM. XXHFRWX (Ac-Nle-[Dab(N3)-His-DPhe-Arg-Trp-Dab(N3)] linkr: 3,3′-Oxybis[1-propyne]-NH2) [KR-042] was tested, and the “MC1R IC50” value was 0.16 nM. In the case of XXHFRWX (Ac-Nle-[Dab-His-DPhe-Arg-Trp-Dab] Linker: succinic acid-NH2) [KR-041], the “MC1R IC50” value is reported as 0.04 nM. For B2, the “MC1R IC50” value was 0.093 nM. B3 was tested, and the “MC1R IC50” value was greater than 50 nM. For Ac-SYSMEHF[NMeR]WGKPV-NH2 [KR-023], the “MC1R IC50” value was 21.2 nM. Ac-[Nle]CH[dF]RWC-NH2 (linker 2-7 via mXylylene) [KR-040] was tested, and the “MC1R IC50” value was 0.124 nM. For Ac-[Nle][Lys(N3)]H[dF]R[NMeW][Pra]-NH2 (triazole 2-7) [KR-046], the “MC1R IC50” value was 0.28 nM. For B4, the “MC1R IC50” value was 0.052 nM. For Ac-[Nle][S5]H[dF]RW[S5]-NH2 (staple 2-7) [KR-039], the “MC1R IC50” value was 1.95 nM. With Ac-[Nle][Lys(N3)]H[dPhe(4-CF3)]RW[Pra]-NH2 (triazole 2-7) [KR-048] the “MC1R IC50” value was 0.18 nM.

The binders below were run against human recombinant MC4R (CHO-K1/Gα15 stable cell line, GenScript) (human, UniProt P32245 1-332) (assay: cell-based or functional assay).
human recombinant MC4R (CHO-K1/Gα15 stable cell line, GenScript), sequence (P32245 whole entry): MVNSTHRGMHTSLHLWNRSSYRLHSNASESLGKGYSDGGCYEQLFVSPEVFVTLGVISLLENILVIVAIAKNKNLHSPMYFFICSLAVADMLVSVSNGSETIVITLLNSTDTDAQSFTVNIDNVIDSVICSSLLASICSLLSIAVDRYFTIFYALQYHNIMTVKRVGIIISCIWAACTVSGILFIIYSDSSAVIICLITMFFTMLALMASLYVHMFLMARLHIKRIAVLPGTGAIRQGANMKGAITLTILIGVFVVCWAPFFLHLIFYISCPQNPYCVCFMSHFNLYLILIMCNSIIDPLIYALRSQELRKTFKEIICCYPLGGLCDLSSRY
In the case of Ac-[Nle][Lys(N3)][NMeH][dF]RW[Pra]-NH2 (triazole 2-7) [KR-043], the “MC4R IC50” value is reported as 31.4 nM. With Ac-[Nle][Lys(N3)]H[dF][NMeR]W[Pra]-NH2 (triazole 2-7) [KR-045] the “MC4R IC50” value was 40.3 nM. In the case of B1, the “MC4R IC50” value is reported as 30.9 nM. Ac-[Nle][Lys(N3)][NMeH][dF]R[NMeW][Pra]-NH2 (triazole 2-7) [KR-051] was tested, and the “MC4R IC50” value was 96.2 nM. In the case of Ac-EHFRWGKPV-NH2 [KR-004], the “MC4R IC50” value is reported as 34.2 nM. In the case of XXHFRWX (Ac-Nle-[Dab(N3)-His-DPhe-Arg-Trp-Dab(N3)] linkr: 3,3′-Oxybis[1-propyne]-NH2) [KR-042], the “MC4R IC50” value is reported as 109 nM. In the case of XXHFRWX (Ac-Nle-[Dab-His-DPhe-Arg-Trp-Dab] Linker: succinic acid-NH2) [KR-041], the “MC4R IC50” value is reported as 13.8 nM. With Ac-[Nle]CH[dF]RCW-NH2 (linker 2-6 via mXylylene) [KR-032] the “MC4R IC50” value was 194 nM. With B2 the “MC4R IC50” value was 31.9 nM. In the case of B3, the “MC4R IC50” value is reported as 74 nM. Ac-[Nle][Lys(N3)]H[dF]R[NMeW][Pra]-NH2 (triazole 2-7) [KR-046] was tested, and the “MC4R IC50” value was 39.3 nM. B4 was tested, and the “MC4R IC50” value was 23.1 nM. In the case of Ac-[Nle][S5]H[dF]RW[S5]-NH2 (staple 2-7) [KR-039], the “MC4R IC50” value is reported as 35.4 nM. For Ac-[Nle][Lys(N3)]H[dPhe(4-CF3)]RW[Pra]-NH2 (triazole 2-7) [KR-048], the “MC4R IC50” value was 183 nM.

Each binder was assayed against human recombinant MC3R (CHO-K1/Gα15 stable cell line, GenScript) (human, UniProt P41968 1-323) (assay: cell-based or functional assay).
human recombinant MC3R (CHO-K1/Gα15 stable cell line, GenScript), sequence (P41968 whole entry): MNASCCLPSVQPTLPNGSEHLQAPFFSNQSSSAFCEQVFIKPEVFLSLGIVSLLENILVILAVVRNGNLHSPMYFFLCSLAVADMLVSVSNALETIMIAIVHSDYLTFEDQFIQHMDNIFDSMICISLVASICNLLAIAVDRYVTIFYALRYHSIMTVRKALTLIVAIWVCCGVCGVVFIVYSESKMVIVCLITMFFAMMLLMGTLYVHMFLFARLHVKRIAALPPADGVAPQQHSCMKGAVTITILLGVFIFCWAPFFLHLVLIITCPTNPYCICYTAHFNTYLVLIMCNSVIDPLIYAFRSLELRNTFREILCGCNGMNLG
In the case of Ac-[Nle][Lys(N3)][NMeH][dF]RW[Pra]-NH2 (triazole 2-7) [KR-043], the “MC3R IC50” value is reported as 61.6 nM. With Ac-[Nle][Lys(N3)]H[dF][NMeR]W[Pra]-NH2 (triazole 2-7) [KR-045] the “MC3R IC50” value was greater than 50000 nM. With Ac-[Nle][Lys(N3)][NMeH][dF]R[NMeW][Pra]-NH2 (triazole 2-7) [KR-051] the “MC3R IC50” value was 77.5 nM. In the case of Ac-EHFRWGKPV-NH2 [KR-004], the “MC3R IC50” value is reported as 937 nM. In the case of XXHFRWX (Ac-Nle-[Dab(N3)-His-DPhe-Arg-Trp-Dab(N3)] linkr: 3,3′-Oxybis[1-propyne]-NH2) [KR-042], the “MC3R IC50” value is reported as 225 nM. In the case of XXHFRWX (Ac-Nle-[Dab-His-DPhe-Arg-Trp-Dab] Linker: succinic acid-NH2) [KR-041], the “MC3R IC50” value is reported as 24.1 nM. With Ac-[Nle]CH[dF]RCW-NH2 (linker 2-6 via mXylylene) [KR-032] the “MC3R IC50” value was 1330 nM. For B2, the “MC3R IC50” value was 67.8 nM. B3 was tested, and the “MC3R IC50” value was 20000 nM. For Ac-SYSMEHF[NMeR]WGKPV-NH2 [KR-023], the “MC3R IC50” value was 13400 nM. For Ac-[Nle][Lys(N3)]H[dF]R[NMeW][Pra]-NH2 (triazole 2-7) [KR-046], the “MC3R IC50” value was 98.8 nM. For B4, the “MC3R IC50” value was 66.5 nM. In the case of Ac-[Nle][S5]H[dF]RW[S5]-NH2 (staple 2-7) [KR-039], the “MC3R IC50” value is reported as 426 nM. In the case of Ac-[Nle][Lys(N3)]H[dPhe(4-CF3)]RW[Pra]-NH2 (triazole 2-7) [KR-048], the “MC3R IC50” value is reported as greater than 50000 nM.
